Substitutions are numbered along the chain they refer to. In names and notes the source's numbering stands. Several values for one entry are separate records, joined by “and”; a condition that tells them apart may be missing. Identical values can stand only once.
Legend:
[1] = biological target: the molecule itself; assay: AUC; sedimentation velocity of the gel filtration peaks; Beckman XL-1, 130,000 g, 20 °C, >12 h; 20 mM Tris, pH 8.0, 100 mM NaCl; SEDFIT continuous c(s) model
[2] = biological target: the molecule itself; assay: SEC; gel filtration on a calibrated Superdex 200 column; 20 mM Tris, pH 8.0, 100 mM NaCl
[3] = biological target: the molecule itself; assay: cross-linking; 0.3 μg purified HA-PML(1–256) with increasing glutaraldehyde, on ice 30 min, 20 mM Hepes pH 7.4; 4–12% SDS-PAGE, anti-HA immunoblot
[4] = biological target: the molecule itself; assay: crystal structure; vapor diffusion, protein 38 mg/ml; 30% PEG 6000, 1 M lithium chloride, 100 mM sodium acetate; Zn SAD; oligomers from the asymmetric unit and crystal packing
[5] = biological target: the molecule itself; assay: cross-linking; 5 μg purified B1 with 0.05, 0.1, 0.2% (w/v) glutaraldehyde, on ice 30 min, 20 mM Hepes pH 7.4; 8–16% SDS-PAGE, coomassie

B1: PML_(1–256) I122P/V123P (domain or fragment, UniProt P29590-1 1-256, looked up)
chain: MEPAPARSPRPQQDPARPQEPTMPPPETPSEGRQPSPSPSPTERAPASEEEFQFLRCQQCQAEAKCPKLLPCLHTLCSGCLEASGMQCPICQAPWPLGADTPALDNVFFESLQRRLSVYRQPPDAQAVCTRCKESADFWCFECEQLLCAKCFEAHQWFLKHEARPLAELRNQSVREFLDGTRKTNNIFCSNPNHRTPTLTSIYCRGCSKPLCCSCALLDSSHSELKCDISAEIQQRQEELDAMTQALQEQDSAFGA
notes: PML (TRIM19), residues 1-256, double mutant I122P/V123P; source: E. coli BL21 (DE3), purified (His-Trap, thrombin, Q, Phenyl, Superdex 200); not shown: SUMO (human), N-terminal, cleaved; His tag, N-terminal, cleaved
B1: binds [1].

B2: PML_(1–256) F158E (domain or fragment, UniProt P29590-1 1-256, looked up)
chain: B1 chain with P122I, P123V, F158E
notes: PML (TRIM19), residues 1-256, mutant F158E; source: E. coli BL21 (DE3), purified (His-Trap, thrombin, Q, Phenyl, Superdex 200); not shown: SUMO (human), N-terminal, cleaved; His tag, N-terminal, cleaved
B2: binds [2].

B3: HA-PML_(1–256) I122P/V123P (domain or fragment, UniProt P29590-1 1-256, looked up)
chain: B1 chain
notes: PML (TRIM19), residues 1-256, double mutant I122P/V123P; See note of m9; source: purified
B3: binds [3].

B4: PML_(1–256) W157E (domain or fragment, UniProt P29590-1 1-256, looked up)
chain: B1 chain with P122I, P123V, W157E
notes: PML (TRIM19), residues 1-256, mutant W157E; source: E. coli BL21 (DE3), purified (His-Trap, thrombin, Q, Phenyl, Superdex 200); not shown: SUMO (human), N-terminal, cleaved; His tag, N-terminal, cleaved
B4: binds [2].

B5: PML RBCC fragment, residues 1-256 (RING, B1, B2 and a 20-residue coiled-coil), wild type (domain or fragment, UniProt P29590-1 1-256, looked up)
chain: B1 chain with P122I, P123V
notes: PML (TRIM19), residues 1-256: RING, B1-box, B2-box and a 20-residue coiled-coil; His tag lay between SUMO and PML; SUMO-His removed after thrombin digestion; Mixture of monomer, dimer, tetramer and N-mer in solution; also called PML_(1–256); RBCC_(1–256); source: E. coli BL21 (DE3), purified (His-Trap, thrombin, Q, Phenyl, Superdex 200); not shown: SUMO (human), N-terminal, cleaved; His tag, …
For B5, the “stoichiometry N” value [1] was 2 and 4.

B6: PML B1-box, residues 120-168, wild type (domain or fragment, UniProt P29590 120-168, looked up)
chain: RQIVDAQAVCTRCKESADFWCFECEQLLCAKCFEAHQWFLKHEARPLAE
notes: PML (TRIM19) B1-box, residues 120-168; residues 120-167 are seen in the crystallographic monomer; Four molecules in the asymmetric unit; also called WT B1; source: E. coli BL21 (DE3), purified (His-Trap, thrombin, Q, Phenyl, S100); not shown: His tag, N-terminal, cleaved
B6: binds [4].

B7: PML B1-box I122P/V123P (domain or fragment, UniProt P29590 120-168, looked up)
chain: B6 chain with I3P, V4P
notes: PML (TRIM19) B1-box, residues 120-168, double mutant I122P/V123P; PDB 6IMQ holds the wild-type parent; source: E. coli BL21 (DE3), purified (His-Trap, thrombin, Q, Phenyl, S100); not shown: His tag, N-terminal, cleaved
B7: binds [5].

— article PMC6706441, “B1 oligomerization regulates PML nuclear body biogenesis and leukemogenesis” (Nature Communications, 2019)
